Values of other authors in publication PMC10299133.

Target: MET (Homo sapiens) (UniProt P08581)
Sequence (P08581 25-932): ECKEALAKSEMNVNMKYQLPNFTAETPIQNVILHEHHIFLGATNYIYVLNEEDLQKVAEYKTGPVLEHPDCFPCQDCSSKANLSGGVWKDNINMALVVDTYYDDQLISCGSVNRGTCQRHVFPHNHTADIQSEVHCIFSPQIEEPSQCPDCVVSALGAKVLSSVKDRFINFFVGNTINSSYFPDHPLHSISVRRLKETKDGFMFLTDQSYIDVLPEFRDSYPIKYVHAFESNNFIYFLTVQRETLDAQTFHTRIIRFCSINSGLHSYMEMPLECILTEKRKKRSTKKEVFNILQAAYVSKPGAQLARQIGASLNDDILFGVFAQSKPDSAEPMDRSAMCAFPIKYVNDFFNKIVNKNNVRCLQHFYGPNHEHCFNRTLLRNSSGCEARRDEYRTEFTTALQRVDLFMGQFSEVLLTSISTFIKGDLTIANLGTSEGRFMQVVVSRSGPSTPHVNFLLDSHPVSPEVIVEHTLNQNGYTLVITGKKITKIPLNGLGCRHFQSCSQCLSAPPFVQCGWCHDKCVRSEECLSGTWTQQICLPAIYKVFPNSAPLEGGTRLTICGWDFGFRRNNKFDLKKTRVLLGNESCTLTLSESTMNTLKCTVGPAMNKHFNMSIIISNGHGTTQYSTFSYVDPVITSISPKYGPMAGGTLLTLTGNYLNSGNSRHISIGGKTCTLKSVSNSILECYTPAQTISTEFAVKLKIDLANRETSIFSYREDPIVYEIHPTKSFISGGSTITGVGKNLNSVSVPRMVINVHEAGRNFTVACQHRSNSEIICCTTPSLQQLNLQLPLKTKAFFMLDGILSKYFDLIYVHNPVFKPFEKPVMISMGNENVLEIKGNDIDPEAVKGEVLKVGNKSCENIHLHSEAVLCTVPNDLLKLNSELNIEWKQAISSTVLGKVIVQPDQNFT

Question: With amivantamab as the substance, how does the Kd read?
Answer: The Kd was 0.04 nM.
